Assay: RP-HPLC insulin apparent solubility / percent recovery (content)
Details: 7 days at 2-8° C.
Method: Apparent solubility was measured as the percent insulin recovery as compared to the initial formulations/conditions.
Samples were prepared by withdrawing 100 μL from each vial at every time point and centrifuging prior to loading. Samples were stored in an autosampler at 4° C. prior to use, and were considered stable for 3 days after preparation. All samples were tested in duplicate.
For insulin, 20 μL was injected for each HPLC run.
To determine the apparent solubility, the peak area of insulin/insulin analog main peak and desamido peak were integrated and combined together to calculate the percentage relative to the standards. […] The data were processed using Design-Expert® 7.0 (StatEase) and the “historical data” feature. Insulin percent purity was expressed as the percent of main insulin versus all insulin species.

Regular Insulin: mature human insulin, SEQ ID NOS: 103 and 104
Solubility of regular Insulin (0.2% methylparaben + […] m-cresol, pH 6.6, NaCl 50 mM): 15.3% | Solubility of regular Insulin (0.2% methylparaben + […] m-cresol, pH 6.6, NaCl 80 mM): 9.0% | Solubility of regular Insulin (0.2% methylparaben + […] m-cresol, pH 6.6, NaCl 140 mM): 5.8% | Solubility of regular Insulin (0.2% methylparaben + […] m-cresol, pH 6.8, NaCl 50 mM): 34.1% | Solubility of regular Insulin (0.2% methylparaben + […] m-cresol, pH 6.8, NaCl 110 mM): 11.4% | Solubility of regular Insulin (0.2% methylparaben + […] m-cresol, pH 7.0, NaCl 50 mM): 86.9% | Solubility of regular Insulin (0.2% methylparaben + […] m-cresol, pH 7.0, NaCl 80 mM): 46.6% | Solubility of regular Insulin (0.2% methylparaben + […] m-cresol, pH 7.0, NaCl 140 mM): 15.9% | Solubility of regular Insulin (0.2% methylparaben + […] m-cresol, pH 7.2, NaCl 80 mM): 90.6% | Solubility of regular Insulin (0.2% methylparaben + […] m-cresol, pH 7.2, NaCl 110 mM): 47.1% | Solubility of regular Insulin (0.2% methylparaben + […] m-cresol, pH 7.2, NaCl 140 mM): 32.9% | Solubility of regular Insulin (0.2% methylparaben + […] m-cresol, pH 7.4, NaCl 50 mM): 98.1% | Solubility of regular Insulin (0.2% methylparaben + […] m-cresol, pH 7.4, NaCl 80 mM): 97.7% | Solubility of regular Insulin (0.2% methylparaben + […] m-cresol, pH 7.4, NaCl 110 mM): 94.6% | Solubility of regular Insulin (0.2% methylparaben + […] m-cresol, pH 7.4, NaCl 140 mM): 59.1% | Solubility of regular Insulin (0.2% methylparaben + […] m-cresol, pH 7.6, NaCl 50 mM): 98.1% | Solubility of regular Insulin (0.2% methylparaben + […] m-cresol, pH 7.6, NaCl 80 mM): 97.9% | Solubility of regular Insulin (0.2% methylparaben + […] m-cresol, pH 7.6, NaCl 140 mM): 95.4% | Solubility of regular Insulin (0.2% phenol + […] m-cresol, pH 6.6, NaCl 50 mM): 26.8% | Solubility of regular Insulin (0.2% phenol + […] m-cresol, pH 6.6, NaCl 80 mM): 8.7% | Solubility of regular Insulin (0.2% phenol + […] m-cresol, pH 6.6, NaCl 110 mM): 6.5% | Solubility of regular Insulin (0.2% phenol + […] m-cresol, pH 6.6, NaCl 140 mM): 5.8% | Solubility of regular Insulin (0.2% phenol + […] m-cresol, pH 6.8, NaCl 50 mM): 38.4% | Solubility of regular Insulin (0.2% phenol + […] m-cresol, pH 6.8, NaCl 80 mM): 17.1% | Solubility of regular Insulin (0.2% phenol + […] m-cresol, pH 6.8, NaCl 140 mM): 6.5% | Solubility of regular Insulin (0.2% phenol + […] m-cresol, pH 7.0, NaCl 50 mM): 100.3% | Solubility of regular Insulin (0.2% phenol + […] m-cresol, pH 7.0, NaCl 80 mM): 35.7% | Solubility of regular Insulin (0.2% phenol + […] m-cresol, pH 7.0, NaCl 110 mM): 17.7% | Solubility of regular Insulin (0.2% phenol + […] m-cresol, pH 7.0, NaCl 140 mM): 11.6% | Solubility of regular Insulin (0.2% phenol + […] m-cresol, pH 7.2, NaCl 80 mM): 92.2% | Solubility of regular Insulin (0.2% phenol + […] m-cresol, pH 7.2, NaCl 110 mM): 37.4% | Solubility of regular Insulin (0.2% phenol + […] m-cresol, pH 7.2, NaCl 140 mM): 18.9% | Solubility of regular Insulin (0.2% phenol + […] m-cresol, pH 7.4, NaCl 80 mM): 99.2% | Solubility of regular Insulin (0.2% phenol + […] m-cresol, pH 7.4, NaCl 110 mM): 87.8% | Solubility of regular Insulin (0.2% phenol + […] m-cresol, pH 7.4, NaCl 140 mM): 40.6% | Solubility of regular Insulin (0.2% phenol + […] m-cresol, pH 7.6, NaCl 80 mM): 99.2% | Solubility of regular Insulin (0.2% phenol + […] m-cresol, pH 7.6, NaCl 110 mM): 98.5% | Solubility of regular Insulin (0.2% phenol + […] m-cresol, pH 7.6, NaCl 140 mM): 82.2% | Solubility of regular Insulin ([…] phenol + […] m-cresol, pH 6.6, NaCl 50 mM): 31.2% | Solubility of regular Insulin ([…] phenol + […] m-cresol, pH 6.6, NaCl 80 mM): 18.6% | Solubility of regular Insulin ([…] phenol + […] m-cresol, pH 6.6, NaCl 140 mM): 12.9% | Solubility of regular Insulin ([…] phenol + […] m-cresol, pH 6.8, NaCl 50 mM): 66.6% | Solubility of regular Insulin ([…] phenol + […] m-cresol, pH 6.8, NaCl 80 mM): 24.9% | Solubility of regular Insulin ([…] phenol + […] m-cresol, pH 7.0, NaCl 50 mM): 96.7% | Solubility of regular Insulin ([…] phenol + […] m-cresol, pH 7.0, NaCl 80 mM): 80.8% | Solubility of regular Insulin ([…] phenol + […] m-cresol, pH 7.0, NaCl 110 mM): 32.9% | Solubility of regular Insulin ([…] phenol + […] m-cresol, pH 7.0, NaCl 140 mM): 17.1% | Solubility of regular Insulin ([…] phenol + […] m-cresol, pH 7.2, NaCl 80 mM): 96.4% | Solubility of regular Insulin ([…] phenol + […] m-cresol, pH 7.2, NaCl 110 mM): 58.7% | Solubility of regular Insulin ([…] phenol + […] m-cresol, pH 7.2, NaCl 140 mM): 33.1% | Solubility of regular Insulin ([…] phenol + […] m-cresol, pH 7.4, NaCl 50 mM): 96.7% | Solubility of regular Insulin ([…] phenol + […] m-cresol, pH 7.4, NaCl 80 mM): 97.3% | Solubility of regular Insulin ([…] phenol + […] m-cresol, pH 7.4, NaCl 110 mM): 94.2% | Solubility of regular Insulin ([…] phenol + […] m-cresol, pH 7.4, NaCl 140 mM): 57.9% | Solubility of regular Insulin ([…] phenol + […] m-cresol, pH 7.6, NaCl 50 mM): 97.2% | Solubility of regular Insulin ([…] phenol + […] m-cresol, pH 7.6, NaCl 80 mM): 97.1% | Solubility of regular Insulin ([…] phenol + […] m-cresol, pH 7.6, NaCl 110 mM): 97.1% | Solubility of regular Insulin ([…] phenol + […] m-cresol, pH 7.6, NaCl 140 mM): 91.7%

— patent publication US9993529B2, “Stable formulations of a hyaluronan-degrading enzyme” (Halozyme, Inc., priority 2011, dated 2018)
